B1: GFP-Mec17p: crude GFP-Mec17p-enriched fraction obtained from transgenic Tetrahymena (protein)
chain: MFKNQLLSLSLRIQKLRLCRQGNQLKVLQKSINQLLFKTQSIDQILQYLQQKKKTHQSILENQNQHIHSIGLVSQLTNQKINKQKNQKAMEFNFIINKLVQLDQQGLGVYIPRASRSKVSSQQEQQLGQVLNTMGERSAIAQGLKQVITNYDKVQGTDQRVYIVAEGRTCQGFLKVGQKNLFYRDMMGNIKEIKPLCVLDFYVHESCQRQGYGKLLFEYMIQCEQTSPEKLAYDRPSPKLIAFLKKHYNLVKYIAQNNNFVVFDQYFRSDASSQNKQNQNTRSYSQPYSDYSSQIPTNYPQQQQQQSNSKSYPYKQENNIDLMQHSSSRNNKEFLNAGRAILSKEEIYKKDNLSQQNIENTLNNINNSQYSTKSQQQQQYQKDYQLDKYENNWGADKNIKKPPFPGQDRQLDKIQQKIQQTERELDVVNQQIIKQRQNLSQDPLTQNHRAQNVYNTNQFGTSPWAQTGFNYYSTSSSNYGNHYTYYKK
modifications: left off: large carriers
notes: crude GFP-Mec17p-enriched fraction obtained from transgenic Tetrahymena
B2: GST-MmMEC-17: recombinant murine MEC-17 expressed in E. coli as a GST fusion (protein)
chain: MEFPFDVDALFPERITVLDQHLRPPARRPGTTTPARVDLQQQIMTIVDELGKASAKAQHLPAPITSALRMQSNRHVIYILKDTSARPAGKGAIIGFLKVGYKKLFVLDDREAHNEVEPLCILDFYIHESVQRHGHGRELFQHMLQKERVEPHQLAIDRPSPKLLKFLNKHYNLETTVPQVNNFVIFEGFFAHQHRPPTSSLRATRHSRAAVADPIPAAPARKLPPKRAEGDIKPYSSSDREFLKVAVEPPWPLNRAPRRATPPAHPPPRSSSLGNSPDRGPLRPFVPEQELLRSLRLCPPHPTARLLLATDPGGSPAQRRRTRGTPWGLVAQSCHYSRHGGFNTSFLGTGNQERKQGEQEAEDRSASEDRVLLLDGSGEEPTQTGAPRAQAPPPQSWTVGGDIMNARVIRNLQERRSTRPW
modifications: left off: a dimerising Fc or GST
notes: recombinant murine MEC-17 expressed in E. coli as a GST fusion

Tests used:
[1] = target: T1, K40 of α-tubulin (Tetrahymena MEC17-KO axonemes or tubulin) (Tetrahymena thermophila, UniProt P41351); assay: In vitro tubulin acetyltransferase assay: activity of MEC-17 enzyme preparations; assay type: biochemical; conditions: for αTAT activity on MEC17-KO axonemes: with acetyl-CoA, western 6-11 B-1
T1 construct: Total tubulin was purified from the MEC17-KO strain of Tetrahymena; endogenous in cells; host or cells: Tetrahymena MEC17-KO strain (axonemes from cilia, or DEAE-purified tubulin)
Source text: (§1) To disrupt the MEC-17 gene in Tetrahymena, we used homologous DNA recombination with a fragment carrying the neo4 marker that replaced the coding region. MEC-17 was overexpressed in Tetrahymena using the MTT1 cadmium-dependent promoter. In C. elegans, MEC-12-K40, MEC-12-Q40, and MEC-12-R40 transgenes were introduced into a single site on chromosome II in the EG4322 strain. Animals homozygous for a MEC-12 transgene and homozygous for the mec-12(e1607) allele were obtained by standard crosses. All touch sensation assays in C. elegans were done using blind scoring. To deplete human MEC-17 (C6Orf134) mRNA in Hela cells, we introduced MEC-17-specific siRNAs (ON-TARGETplus pool, Dharmacon) using Oligofectamine (Invitrogen). To knockdown mec17 expression in zebrafish, MOs designed to target the MEC-17 mRNA (Open Biosystems) were injected into early embryos. ATG-MEC17 MO targets the translation initiation site of mec17 mRNA. SP-MEC17 MO targets the exon3/intron3-4 splice junction, and is expected to result in an aberrant splicing isoform of exon2 to exon 4, producing a frameshift mutation and associated protein truncation. As a negative control, we injected MO with a random sequence (oligo-25N, Gene Tools) or a 5 bp mismatch to the ATG-MEC17 MO. Live embryos were scored for phenotypes at 48 hpf. To produce a recombinant MEC-17 protein, the cDNA sequence of the murine MEC-17 (BF135007, Open Biosystems) was subcloned into pGEX-3× plasmid (GE Healthcare), expressed in BL21 E. coli cells as a GST fusion and purified using GST-Bind kit (Novagen). The in vitro acetylation assays were performed in 50 mM Tris-HCl pH 8.0, […], 0.1 mM EDTA, with purified Tetrahymena MEC-17-KO axonemes or tubulin (purified using DEAE chromatography), recombinant GST-MmMEC-17 enzyme and 10 μM acetyl-CoA. The reaction was detected by western blotting using anti-acetyl-K antibodies.
(§2) To prepare MEC 17-KO axonemes, Tetrahymena cells were grown to the mid-log phase and deciliated by pH shock (Wloga et al., 2008 Eukaryot Cell 7:1362-1372). Cilia were suspended in 1 ml of 1% NP-40 in the axoneme buffer (30 mM HEPES, 20 mM potassium acetate, 5 mM MgSO4, 0.5 mM EDTA, pH 7.6) with Complete protease inhibitors (Roche). After 1-2 min on ice, axonemes were collected by centrifugation (20,000×g, 15 min, 4° C.), suspended in the in vitro acetylation reaction buffer (50 mM Tris HCl, pH 8.0, 10% glycerol, 0.1 mM EDTA, 1 mM DTT) with protease inhibitors and stored at −80° C.
(§3) Total tubulin was purified from the MEC17-KO strain of Tetrahymena using a protocol modified after Yakovich and colleagues (Yakovich et al., 2006 Exp Parasitol 114:289-296). […]

[2] = target: T2, K40 of α-tubulin (Tetrahymena MEC17-KO axonemes or tubulin) (Tetrahymena thermophila, UniProt P41351, K40R); assay: as above; assay type: biochemical; conditions: pan acetyl-K antibodies
T2 construct: Total tubulin was purified from the MEC17-KO strain of Tetrahymena; endogenous in cells; host or cells: Tetrahymena MEC17-KO strain (axonemes from cilia, or DEAE-purified tubulin)
Source text: as §1, §2, §3

T1 sequence (P41351 whole entry): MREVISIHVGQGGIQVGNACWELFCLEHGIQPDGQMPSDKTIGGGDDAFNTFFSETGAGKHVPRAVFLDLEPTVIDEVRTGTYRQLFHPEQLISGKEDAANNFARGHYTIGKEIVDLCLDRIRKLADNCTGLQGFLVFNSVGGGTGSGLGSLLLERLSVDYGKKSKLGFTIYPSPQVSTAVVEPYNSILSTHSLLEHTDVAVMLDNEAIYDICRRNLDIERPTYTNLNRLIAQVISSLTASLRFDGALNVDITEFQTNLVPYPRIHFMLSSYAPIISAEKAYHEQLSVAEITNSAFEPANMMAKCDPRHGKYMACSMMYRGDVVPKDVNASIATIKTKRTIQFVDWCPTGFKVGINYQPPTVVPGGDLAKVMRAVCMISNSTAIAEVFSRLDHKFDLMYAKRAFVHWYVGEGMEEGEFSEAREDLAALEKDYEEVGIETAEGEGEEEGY
T1 sequence (P41352 whole entry partner): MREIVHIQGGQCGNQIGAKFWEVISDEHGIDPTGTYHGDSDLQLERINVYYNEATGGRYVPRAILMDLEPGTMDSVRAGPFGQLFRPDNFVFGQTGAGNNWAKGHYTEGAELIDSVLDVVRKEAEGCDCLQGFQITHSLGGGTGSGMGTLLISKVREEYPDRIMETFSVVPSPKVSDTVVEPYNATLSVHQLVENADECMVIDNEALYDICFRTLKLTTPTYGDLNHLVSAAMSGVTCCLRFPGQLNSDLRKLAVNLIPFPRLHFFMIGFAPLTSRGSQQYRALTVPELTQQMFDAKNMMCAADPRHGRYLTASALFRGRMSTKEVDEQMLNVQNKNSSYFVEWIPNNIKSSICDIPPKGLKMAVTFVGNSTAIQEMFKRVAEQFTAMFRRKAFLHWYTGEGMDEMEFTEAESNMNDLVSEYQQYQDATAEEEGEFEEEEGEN
T2 sequence (P41351 whole entry K40R): as the sequence (P41351 whole entry) above, with K40R counted along it
T2 sequence (P41352 whole entry, further chain): as the sequence (P41352 whole entry partner) above

Molecule	αTAT activity on MEC17-KO axonemes [1]	K40 acetylation activity on purified tubulin ([1]; highly purified tubulin from MEC17-KO cells)	acetylation of R40 axonemes (K40R mutant) [2]
B1	had K40 αTAT activity	–	–
B2	robust αTAT activity	robust K40 acetylation activity	failed to acetylate

Reference: patent US20140248635A1, “ALPHA-TUBULIN […]” (University of Georgia Research Foundation, Inc., priority 2010, published 2014)
